Data reported in patent US7462599.

Legend:
H-Gln-Trp-Ala-NH2 = biological target: T1, H-Gln-Trp-Ala-NH2
T1 chain: QWA

H-Gln-Glu-Asp-Leu-NH2 = biological target: T2, H-Gln-Glu-Asp-Leu-NH2
T2 chain: QEDL

H-Gln-Val-OH = biological target: T3, H-Gln-Val-OH
T3 chain: QV

Gln^3-Aβ(3-11)a = biological target: T4, Gln^3-Aβ(3-11)a
T4 chain: QFRHDSGYE

H-Gln-Arg-Tyr-Phe-NH2 = biological target: T5, H-Gln-Arg-Tyr-Phe-NH2
T5 chain: QRYF

H-Gln-Gln-Tyr-Phe-NH2 = biological target: T6, H-Gln-Gln-Tyr-Phe-NH2
T6 chain: QQYF

H-Gln-Ser-Tyr-Phe-NH2 = biological target: T7, H-Gln-Ser-Tyr-Phe-NH2
T7 chain: QSYF

H-Gln-Phe-Ala-NH2 = biological target: T8, H-Gln-Phe-Ala-NH2
T8 chain: QFA

H-Gln-Tyr-Ala-OH = biological target: T9, H-Gln-Tyr-Ala-OH
T9 chain: QYA

H-Gln-Ala-OH = biological target: T10, H-Gln-Ala-OH
T10 chain: QA

[1] = biological target: T11, H-βhomoGln-Phe-Lys-Arg-Leu-Ala-NH2
T11 chain: QFKRLA

[2] = biological target: T12, H-Gln-Ala-Ala-Ser-Ala-Ala-NH2
T12 chain: QAASAA

H-Gln-Pro-Tyr-Phe-NH2 = biological target: T13, H-Gln-Pro-Tyr-Phe-NH2
T13 chain: QPYF

[3] = biological target: T14, H-Gln-Ala-Ala-Ala-Ala-NH2
T14 chain: QAAAA

H-Gln-Glu-Tyr-Ala-NH2 = biological target: T15, H-Gln-Glu-Tyr-Ala-NH2
T15 chain: QEYA

H-Gln-Arg-Gly-Ile-NH2 = biological target: T16, H-Gln-Arg-Gly-Ile-NH2
T16 chain: QRGI

H-Gln-Glu-Tyr-NH2 = biological target: T17, H-Gln-Glu-Tyr-NH2
T17 chain: QEY

H-Gln-Gly-OH = biological target: T18, H-Gln-Gly-OH
T18 chain: QG

H-Gln-Gly-Pro-OH = biological target: T19, H-Gln-Gly-Pro-OH
T19 chain: QGP

H-Gln-Gln-OH = biological target: T20, H-Gln-Gln-OH
T20 chain: QQ

H-Gln-Glu-Tyr-Phe-NH2 = biological target: T21, H-Gln-Glu-Tyr-Phe-NH2
T21 chain: QEYF

H-Gln-Asn-Gly-Ile-NH2 = biological target: T22, H-Gln-Asn-Gly-Ile-NH2
T22 chain: QNGI

H-Gln-Lys-Arg-Leu-NH2 = biological target: T23, H-Gln-Lys-Arg-Leu-NH2
T23 chain: QKRL

H-Gln-Glu-Ala-Phe-NH2 = biological target: T24, H-Gln-Glu-Ala-Phe-NH2
T24 chain: QEAF

H-Gln-Glu-Ala-Ala-NH2 = biological target: T25, H-Gln-Glu-Ala-Ala-NH2
T25 chain: QEAA

[Gln^1]-GnRH = biological target: T26, [Gln^1]-GnRH
T26 chain: QHWSYGLRPG

H-Gln-His-Tyr-Phe-NH2 = biological target: T27, H-Gln-His-Tyr-Phe-NH2
T27 chain: QHYF

H-Gln-Glu-OH = biological target: T28, H-Gln-Glu-OH
T28 chain: QE

[4] = biological target: T29, H-Gln-cyclo(Nε-Lys-Arg-Pro-Ala-Gly-Phe)
T29 chain: QKRPAGF

[5] = biological target: T30, [Gln^5]-substance P(5-11)
T30 chain: QQFFGLM

H-Gln-Ala-NH2 = biological target: T31, H-Gln-Ala-NH2
T31 chain: QA

H-Gln-Tyr-OH = biological target: T32, H-Gln-Tyr-OH
T32 chain: QY

B1: recombinant human glutaminyl cyclase (QC, EC 2.3.2.5) (protein)
chain: VSPSASAWPEEKNYHQPAILNSSALRQIAEGTSISEMWQNDLQPLLIERYPGSPGSYAARQHIMQRIQRLQADWVLEIDTFLSQTPYGYRSFSNIISTLNPTAKRHLVLACHYDSKYFSHWNNRVFVGATDSAVPCAMMLELARALDKKLLSLKTVSDSKPDLSLQLIFFDGEEAFLHWSPQDSLYGSRHLAAKMASTPHPPGARGTSQLHGMDLLVLLDLIGAPNPTFPNFFPNSARWFERLQAIEHELHELGLLKDHSLEGRYFQNYSYGGVIQDDHIPFLRRGVPVLHLIPSPFPEVWHTMDDNEENLDESTIDNLNKILQVFVLEYLHL
H-Gln-Trp-Ala-NH2
  KM (0.05 M Tris-HCl, pH 8.0): 0.054 mM
  KM (0.05 M Tris-HCl, pH 8.0, 0.5 M KCl): 0.056 mM
  KM (substrate conversion by QC): 50 µM
H-Gln-Glu-Asp-Leu-NH2
  KM (0.05 M Tris-HCl, pH 8.0): 0.06 mM
  KM (0.05 M Tris-HCl, pH 8.0, 0.5 M KCl): 0.061 mM
  KM (substrate conversion by QC): 55 µM
H-Gln-Val-OH
  KM (substrate conversion by QC): 196 µM
Gln^3-Aβ(3-11)a
  KM (buffer containing 1% DMSO): 155 µM
H-Gln-Arg-Tyr-Phe-NH2
  KM (substrate conversion by QC): 55 µM
H-Gln-Gln-Tyr-Phe-NH2
  KM (substrate conversion by QC): 41 µM
H-Gln-Ser-Tyr-Phe-NH2
  KM (substrate conversion by QC): 55 µM
H-Gln-Phe-Ala-NH2
  KM (substrate conversion by QC): 69 µM
H-Gln-Tyr-Ala-OH
  KM (substrate conversion by QC): 101 µM
H-Gln-Ala-OH
  KM (0.05 M Tris-HCl, pH 8.0): 0.269 mM
  KM (0.05 M Tris-HCl, pH 8.0, 0.5 M KCl): 0.357 mM
  KM (substrate conversion by QC): 232 µM
[1]
  KM (substrate conversion by QC): KM=2.5±0.2 mM
[2]
  KM (substrate conversion by QC): 79 µM
H-Gln-Pro-Tyr-Phe-NH2
  KM (substrate conversion by QC): 1890 µM
[3]
  KM (substrate conversion by QC): 65 µM
H-Gln-Glu-Tyr-Ala-NH2
  KM (substrate conversion by QC): 69 µM
H-Gln-Arg-Gly-Ile-NH2
  KM (0.05 M Tris-HCl, pH 8.0): 0.166 mM
  KM (0.05 M Tris-HCl, pH 8.0, 0.5 M KCl): 0.091 mM
  KM (substrate conversion by QC): 143 µM
H-Gln-Glu-Tyr-NH2
  KM (substrate conversion by QC): 79 µM
H-Gln-Gly-OH
  KM (substrate conversion by QC): 247 µM
H-Gln-Gly-Pro-OH
  KM (substrate conversion by QC): 130 µM
H-Gln-Gln-OH
  KM (substrate conversion by QC): 148 µM
H-Gln-Glu-Tyr-Phe-NH2
  KM (substrate conversion by QC): 47 µM
H-Gln-Asn-Gly-Ile-NH2
  KM (substrate conversion by QC): 172 µM
H-Gln-Lys-Arg-Leu-NH2
  KM (0.05 M Tris-HCl, pH 8.0): 0.051 mM
  KM (0.05 M Tris-HCl, pH 8.0, 0.5 M KCl): 0.034 mM
  KM (substrate conversion by QC): 54 µM
H-Gln-Glu-Ala-Phe-NH2
  KM (substrate conversion by QC): 39 µM
H-Gln-Glu-Ala-Ala-NH2
  KM (substrate conversion by QC): 77 µM
[Gln^1]-GnRH
  KM (substrate conversion by QC): 53 µM
H-Gln-His-Tyr-Phe-NH2
  KM (substrate conversion by QC): 68 µM
H-Gln-Glu-OH
  KM (0.05 M Tris-HCl, pH 8.0): 0.373 mM
  KM (0.05 M Tris-HCl, pH 8.0, 0.5 M KCl): 0.607 mM
  KM (substrate conversion by QC): 359 µM
[4]
  KM (substrate conversion by QC): KM-values of 240±14 µM and 133±5 µM for human and papaya QC, respectively
[5]
  substrate conversion, determined qualitatively by MALDI-TOF: *
H-Gln-Ala-NH2
  KM (substrate conversion by QC): 155 µM
H-Gln-Tyr-OH
  KM (substrate conversion by QC): 211 µM
